Experimental data as given in US20240101959A1, “USE OF IL-2R-BETA-GAMMA AGONIST PEPTIDES IN CELL MANUFACTURING” (MEDIKINE, INC., priority 2022, published 2024).
Where two headings read alike, the source gives them in different places.

T1: hu-IL-2Rγc subunit (Homo sapiens, UniProt P31785)
T1 sequence (P31785 23-369): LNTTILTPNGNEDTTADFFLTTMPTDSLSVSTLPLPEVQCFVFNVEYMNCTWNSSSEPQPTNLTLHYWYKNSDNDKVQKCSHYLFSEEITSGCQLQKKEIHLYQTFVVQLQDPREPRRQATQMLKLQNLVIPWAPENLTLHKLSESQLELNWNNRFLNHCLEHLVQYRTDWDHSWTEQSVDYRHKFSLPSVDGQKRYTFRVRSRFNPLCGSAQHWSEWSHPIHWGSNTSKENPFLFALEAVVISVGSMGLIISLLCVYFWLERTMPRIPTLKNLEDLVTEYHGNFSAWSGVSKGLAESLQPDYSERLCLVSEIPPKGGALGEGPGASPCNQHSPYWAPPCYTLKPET

T2: IL-2Rβ (Homo sapiens, UniProt P14784)
T2 sequence (P14784 27-551): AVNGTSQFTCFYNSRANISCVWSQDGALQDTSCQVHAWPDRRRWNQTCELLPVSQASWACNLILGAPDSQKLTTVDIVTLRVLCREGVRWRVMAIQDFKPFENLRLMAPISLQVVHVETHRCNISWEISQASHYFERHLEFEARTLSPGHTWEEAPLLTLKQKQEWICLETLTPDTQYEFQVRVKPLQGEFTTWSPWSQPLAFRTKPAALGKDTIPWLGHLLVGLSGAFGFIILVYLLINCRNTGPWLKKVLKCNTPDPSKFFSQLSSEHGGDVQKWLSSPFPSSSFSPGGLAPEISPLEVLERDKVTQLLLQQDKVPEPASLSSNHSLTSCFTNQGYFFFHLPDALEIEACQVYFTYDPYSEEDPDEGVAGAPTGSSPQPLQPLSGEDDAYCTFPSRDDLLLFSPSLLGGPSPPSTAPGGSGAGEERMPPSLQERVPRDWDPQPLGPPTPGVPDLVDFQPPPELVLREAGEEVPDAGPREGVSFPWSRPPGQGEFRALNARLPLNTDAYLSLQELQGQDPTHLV

T3: hu-IL-2Rβ subunit (Homo sapiens, UniProt P14784)
T3 sequence (P14784 27-551): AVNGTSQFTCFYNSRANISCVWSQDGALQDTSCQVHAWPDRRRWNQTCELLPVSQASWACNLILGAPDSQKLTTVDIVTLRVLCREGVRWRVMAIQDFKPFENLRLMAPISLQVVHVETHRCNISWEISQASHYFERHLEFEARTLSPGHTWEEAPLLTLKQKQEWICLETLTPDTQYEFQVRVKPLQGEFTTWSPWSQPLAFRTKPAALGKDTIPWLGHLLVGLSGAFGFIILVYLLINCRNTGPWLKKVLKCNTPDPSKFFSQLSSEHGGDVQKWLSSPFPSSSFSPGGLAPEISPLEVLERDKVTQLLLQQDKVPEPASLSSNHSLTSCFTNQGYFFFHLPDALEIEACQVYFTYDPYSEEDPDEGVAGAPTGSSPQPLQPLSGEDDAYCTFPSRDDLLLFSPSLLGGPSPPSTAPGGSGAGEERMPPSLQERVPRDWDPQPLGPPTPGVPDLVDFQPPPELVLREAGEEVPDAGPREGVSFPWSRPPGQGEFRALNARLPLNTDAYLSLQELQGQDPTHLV

T4: hu-IL-2Rγc subunit (human, UniProt P31785 23-262, limits assumed)
T4 sequence (looked up): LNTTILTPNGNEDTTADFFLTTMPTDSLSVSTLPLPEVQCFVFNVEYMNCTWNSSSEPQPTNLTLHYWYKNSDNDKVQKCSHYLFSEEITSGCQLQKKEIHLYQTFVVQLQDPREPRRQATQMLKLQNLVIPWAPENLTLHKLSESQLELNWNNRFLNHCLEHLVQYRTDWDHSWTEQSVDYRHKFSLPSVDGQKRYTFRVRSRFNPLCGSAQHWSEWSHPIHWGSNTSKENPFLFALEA

T5: hu-IL-2Rγc subunit (human), P31785
T5 chain: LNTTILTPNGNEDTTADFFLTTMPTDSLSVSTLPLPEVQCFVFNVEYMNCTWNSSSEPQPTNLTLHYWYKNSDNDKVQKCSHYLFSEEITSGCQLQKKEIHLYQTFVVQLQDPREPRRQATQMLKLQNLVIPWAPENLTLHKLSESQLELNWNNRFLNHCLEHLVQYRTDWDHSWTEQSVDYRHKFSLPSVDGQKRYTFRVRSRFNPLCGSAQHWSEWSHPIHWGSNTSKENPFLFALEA


Tests used:
hu-IL-2Rγc subunit [1] = biological target: T1, hu-IL-2Rγc subunit; experiment: competitive binding at the specific binding site on the hu-IL-2Rγc subunit
IL-2Rβ = biological target: T2, IL-2Rβ; experiment: competition with IL-2 binding to IL-2Rβ
hu-IL-2Rβ subunit = biological target: T3, hu-IL-2Rβ subunit; experiment: competitive binding at the specific binding site on the hu-IL-2Rβ subunit
Source text: This specific binding site on the hu-IL-2Rβ subunit to which the group of IL-2Rβ ligands bind can be characterized using competitive binding assays as described.

hu-IL-2Rγc subunit [2] = biological target: T4, hu-IL-2Rγc subunit
hu-IL-2Rγc subunit [3] = biological target: T4, hu-IL-2Rγc subunit; experiment: phage ELISA competition assay
[4] = biological target: T5, hu-IL-2Rγc subunit (human), P31785
[5] = biological target: T5, hu-IL-2Rγc subunit (human), P31785

IC50 (hu-IL-2Rγc subunit [2]) [µM]	IC50 (hu-IL-2Rγc subunit [3]) [µM]	Molecule	other results
		S L L K C Y N A S T C A S V F (SLLKCYNASTCASVF) [SEQ ID NO: 723]	competition with the group of IL-2Rγc ligands (SEQ ID NO: 935-940) for the specific binding site on the hu-IL-2Rγc subunit (hu-IL-2Rγc subunit [1]): do not compete
		N M C L V G D Y W P S C Q I (NMCLVGDYWPSCQI) [SEQ ID NO: 933]	competition with IL-2 binding to IL-2Rβ (IL-2Rβ): do not bind competitively
		R W G D V G D L L M P L (RWGDVGDLLMPL) [SEQ ID NO: 934]	competition with IL-2 binding to IL-2Rβ (IL-2Rβ): do not bind competitively
		Y D C R I A Q V G E L C D L (YDCRIAQVGELCDL) [SEQ ID NO: 932]	competition with the group of IL-2Rγc ligands (SEQ ID NO: 935-940) for the specific binding site on the hu-IL-2Rγc subunit (hu-IL-2Rγc subunit [1]): does not compete; competition with IL-2 binding to IL-2Rβ (IL-2Rβ): do not bind competitively
		D C S M W E G V E L C W (DCSMWEGVELCW) [SEQ ID NO: 935]	competition with IL-2 binding to IL-2Rβ (IL-2Rβ): do not bind competitively; competition with the group of IL-2Rβ ligands for the specific binding site on the IL-2Rβ subunit (hu-IL-2Rβ subunit): does not compete
		R S C Y Y K R P R L W C S E (RSCYYKRPRLWCSE) [SEQ ID NO: 931]	competition with the group of IL-2Rβ ligands for the specific binding site on the IL-2Rβ subunit (hu-IL-2Rβ subunit): does not compete
< 100	< 10	ILCEEWQGVELCWLEGGGS [SEQ ID NO 714]	
< 100	< 10	KKIVVCQDWGGVELCWTEDD [SEQ ID NO 708]	
		KVCEMWGGVLLCWN (modifications not checked) [SEQ ID NO 936]	IC50 [4]: < 10 µM; IC50 [5]: < 100 µM
< 100	< 10	RTGVECQDWHGVELCWPVWE [SEQ ID NO 711]	
< 100	< 10	GYGVVCEDFRGVELCWLERK [SEQ ID NO 712]	
< 100	< 10	VVCEVFQGVELCWCENEEFT [SEQ ID NO 693]	
< 100	< 10	VTCQEYEGVELCWTVGCAYS [SEQ ID NO 698]	
< 100	< 10	VGIECEEWAGVELCWL [SEQ ID NO 715]	
